Experimental data as given in patent publication US20160096891A1 (AstraZeneca / MedImmune, published 2016).

T1: human B7-H5 expressed on cells (CHO transfectants) (UniProt Q9UM44 23-414)
T1 chain: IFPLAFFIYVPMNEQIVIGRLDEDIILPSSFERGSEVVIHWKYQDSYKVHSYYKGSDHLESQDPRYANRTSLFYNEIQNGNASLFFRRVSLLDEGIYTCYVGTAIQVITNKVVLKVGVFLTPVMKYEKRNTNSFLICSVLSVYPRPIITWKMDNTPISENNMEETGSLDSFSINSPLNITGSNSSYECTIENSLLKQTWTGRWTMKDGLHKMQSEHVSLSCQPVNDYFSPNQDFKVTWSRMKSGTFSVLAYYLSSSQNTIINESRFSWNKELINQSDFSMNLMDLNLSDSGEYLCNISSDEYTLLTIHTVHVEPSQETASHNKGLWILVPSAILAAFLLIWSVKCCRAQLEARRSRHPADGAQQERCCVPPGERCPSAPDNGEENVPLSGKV

T2: human B7-H5 expressed on cells (CHO transfectants) (human, UniProt Q9UM44 23-414)
T2 construct: also called B7-H7; HHLA2
T2 sequence: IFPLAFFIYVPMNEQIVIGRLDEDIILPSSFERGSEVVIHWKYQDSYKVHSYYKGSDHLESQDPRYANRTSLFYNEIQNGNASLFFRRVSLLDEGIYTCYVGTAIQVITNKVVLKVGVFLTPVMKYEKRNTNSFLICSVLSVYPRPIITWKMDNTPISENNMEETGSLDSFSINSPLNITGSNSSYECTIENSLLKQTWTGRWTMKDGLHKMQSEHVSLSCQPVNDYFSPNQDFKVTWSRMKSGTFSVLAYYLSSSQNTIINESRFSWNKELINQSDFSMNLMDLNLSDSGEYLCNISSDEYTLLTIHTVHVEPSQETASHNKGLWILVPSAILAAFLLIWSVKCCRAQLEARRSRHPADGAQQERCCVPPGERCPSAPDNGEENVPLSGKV


Assays:
[1] = target: T1, human B7-H5 expressed on cells (CHO …); experiment: FACS binding to CHO cells
[2] = target: T2, human B7-H5 expressed on cells (CHO …); experiment: flow cytometry on CHO transfectants expressing human B7-H5
[3] = target: T2, human B7-H5 expressed on cells (CHO …); experiment: flow cytometry on CHO cells expressing human B7-H5 (figure legend)
Experimental: Human B7-H5 FL CHO transfectants were pre-incubated with control supernatant (Panel A) or recombinant chimeric 2D3 (Panel B) and 18C3 supernatants (Panel C), and subsequently stained with biotinylated CD28HhIg fusion protein.
The human B7-H5-binding antibodies of the present invention (antibodies 2D3 and 18C3) were recombinantly converted to a human IgG4P isotype from their native hamster isotype. CHO transfectants that express human B7-H5 were then incubated in the presence of the recombinant antibodies. […] FIG. 15 compares the affinities of antibodies 2D3 and 18C3 for binding to human B7-H5 as expressed on the surface of CHO cells.

Binder	Kd [1]	binding result [2]	binding result [3]
anti-human B7-H5 antibody 2D3 (hybridoma clone 2D3) (antibody, V domains shown, constant regions are not; also called Anti-Human B7-H5 Clone 2D3; 2D3 mAb) VH: QVQLQQSGAELVKPGASVKLSCKASGYTFTSHDINWVRQRPELGLEWIGWIFPGDGSTKFNEKFKGKATLTTDKSSSTAYIQLSRLTSEDSAVYFCARNSFYSMDYWGQGTSVTVSS VL: DIVMSQSPSSLAVSAGEKVTMSCKSSQSLLNSRTRKNQLAWYQQKPGQSPKLLIYWAFIRESGVPDRFTGSGSGTDFTLTISSVQAEDLAVYYCKQSYNLRTFGGGTKLEIK	~2.5 nM	binds	–
recombinant anti-human B7-H5 chimeric antibody 2D3, human IgG4P isotype (antibody, V domains shown, also called recombinant chimeric 2D3; human IgG4P derivative of 2D3) VH: QVQLQQSGAELVKPGASVKLSCKASGYTFTSHDINWVRQRPELGLEWIGWIFPGDGSTKFNEKFKGKATLTTDKSSSTAYIQLSRLTSEDSAVYFCARNSFYSMDYWGQGTSVTVSS VL: DIVMSQSPSSLAVSAGEKVTMSCKSSQSLLNSRTRKNQLAWYQQKPGQSPKLLIYWAFIRESGVPDRFTGSGSGTDFTLTISSVQAEDLAVYYCKQSYNLRTFGGGTKLEIK	–	–	binds
recombinant anti-human B7-H5 chimeric antibody 18C3, human IgG4P isotype (antibody, V domains shown, also called recombinant chimeric 18C3; human IgG4P derivative of 18C3) VH: QVQLQQSGAELVKPGASVKLSCKASGYTFTSHDINWVRQRPEQGLEWIGWIFPGDGSTKFNEKFKGKATLTTDKSSSTAYIQLSRLTSEDSAVYFCARNSFYSMDYWGQGTSVTVSS VL: DIVMSQSPSSLAVSAGEKVTMSCKSSQSLLNSRTRKNQLAWYQQKPGQSPKLLIYWASTRESGVPDRFTGSGSGTDFTLTISSVQAEDLAVYYCKQSYNLRTFGGGTKLEIK	–	–	binds
anti-human B7-H5 antibody 18C3 (hybridoma clone 18C3) (antibody, V domains shown, constant regions are not; also called Anti-Human B7-H5 Clone 18C3) VH: QVQLQQSGAELVKPGASVKLSCKASGYTFTSHDINWVRQRPEQGLEWIGWIFPGDGSTKFNEKFKGKATLTTDKSSSTAYIQLSRLTSEDSAVYFCARNSFYSMDYWGQGTSVTVSS VL: DIVMSQSPSSLAVSAGEKVTMSCKSSQSLLNSRTRKNQLAWYQQKPGQSPKLLIYWASTRESGVPDRFTGSGSGTDFTLTISSVQAEDLAVYYCKQSYNLRTFGGGTKLEIK	~3.8 nM	binds	–
